Experiments:
Test in all cases: SEC-MALS; Superdex 200 Increase 5/150 GL; proteins at 3 mg/ml; 20 mM Tris-HCl pH 8.0, 300 mM NaCl, 5% glycerol, 2 mM 2-mercaptoethanol
[1] = target: VvRraA1 (RraA ortholog 1 of Vibrio vulnificus), hexahistidine-tagged (Vibrio vulnificus MO6-24/O)
[2] = target: VvRraA2 (RraA ortholog 2 of Vibrio vulnificus), hexahistidine-tagged (Vibrio vulnificus MO6-24/O)
[3] = target: the molecule itself

## VvRraA1 (RraA ortholog 1 of Vibrio vulnificus), hexahistidine-tagged (natural protein)
[1]
  stoichiometry N: 6

## VvRraA2 (RraA ortholog 2 of Vibrio vulnificus), hexahistidine-tagged (natural protein)
[2]
  stoichiometry N: 3

B1: E. coli RraA (natural protein)
chain: MKYDTSELCDIYQEDVNVVEPLFSNFGGRASFGGQIITVKCFEDNGLLYDLLEQNGRGRVLVVDGGGSVRRALVDAELARLAVQNEWEGLVIYGAVRQVDDLEELDIGIQAMAAIPVGAAGEGIGESDVRVNFGGVTFFSGDHLYADNTGIILSEDPLDIE
notes: RraA, regulator of ribonuclease activity A, Escherichia coli; the construct is not described here; Hexamer by SEC-MALS (87.05 kDa); also called EcRraA
[3]
  stoichiometry N: 6
